# ± gives the standard deviation of the averaged measurements.
# System: ATP
# Assay: switch fluorescence ratio, 500 uM ATP over buffer (Cy3 cluster intensity, sum of 5 cycles each) (fold (ratio)); higher = stronger signal-on switching upon ATP binding; sequences stand for … in TCGTCGGCAGCGTCAGATGTGTATAAGAGACAGTTTTTTTTTTTTTTTTTTTTTTTTT…TC
# Conditions: aptamer strand: ATP DNA aptamer (quencher-CACCTGGGGGAGTATTGCGGAGGAAGG + anchor), 100 nM annealed; ATP concentration: 500 uM
# Summary of the method: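 After annealing to 100 nM quencher-labelled ATP aptamer, Cy3-labelled switching-strand clusters on a modified Illumina MiSeq flow-cell were imaged in selection buffer. A second image followed after 15 min with 500 uM ATP at 22 °C, and five such buffer/ATP cycles were done, each separated by NaOH stripping and re-annealing. The fluorescence ratio, averaged per switch-domain sequence, is summed target-cycle over summed buffer-cycle Cy3 intensity per cluster, with clusters outside 100-1000 RFU excluded.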
# 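Further: ATP exposure 15 min at 22 °C before imaging.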
row,Sequence,switch fluorescence ratio
1,ATAAAAAATC,0.986 ± 0.017
2,ATAAAAATCG,0.989 ± 0.027
3,ATAAAACGC,1.04 ± 0.071
4,ATAAAATTGG,0.988 ± 0.034
5,ATAAACGGCG,1.01 ± 0.024
6,ATAAACGGCT,1.01 ± 0.021
7,ATAAACGGGG,0.9917 ± 0.001
8,ATAAACGTTT,1.018 ± 0.0069
9,ATAAACTTGG,1.01 ± 0.033
10,ATAAAGAGAG,1.01 ± 0.023
11,ATAAAGCGAT,1.06 ± 0.023
12,ATAAAGGAAG,0.99 ± 0.011
13,ATAAAGTCAC,1.16 ± 0.18
14,ATAAATGAGG,1.01 ± 0.014
15,ATAAATTTTT,1.01 ± 0.023
16,ATAACAAACT,1.05 ± 0.012
17,ATAACACGGC,1.05 ± 0.1
18,ATAACGCAGT,1.0027 ± 0.00069
19,ATAACGTTCG,1.06 ± 0.052
20,ATAACGTTTT,1.02 ± 0.019
21,ATAACTACTA,1.06 ± 0.015
22,ATAAGACCGT,1.015 ± 0.0046
23,ATAAGATGCC,0.963 ± 0.014
24,ATAAGGAGGG,1 ± 0.01
25,ATAAGGATAG,1 ± 0.011

row,Sequence,switch fluorescence ratio
1,ATAAGGATGG,0.9788 ± 0.0034
2,ATAAGGCTTT,0.989 ± 0.029
3,ATAAGGGGAT,0.983 ± 0.023
4,ATAAGTGATC,0.981 ± 0.069
5,ATAAGTGATG,0.995 ± 0.025
6,ATAAGTGCAA,1.06 ± 0.011
7,ATAAGTTAAG,0.999 ± 0.013
8,ATAATATAAC,1 ± 0.018
9,ATAATCATTT,1.02 ± 0.021
10,ATAATGCAGG,1 ± 0.032
11,ATAATGTCGC,0.9702 ± 0.0012
12,ATAATTAAGG,0.99 ± 0.028
13,ATAATTATGC,1.025 ± 0.0052
14,ATAATTCATC,1 ± 0.013
15,ATAATTGGCC,0.97422 ± 0.00035
16,ATAATTGGGG,0.98 ± 0.026
17,ATAATTGGGT,0.993 ± 0.022
18,ATAATTTAGG,0.9859 ± 0.0029
19,ATAATTTATT,0.996 ± 0.012
20,ATAATTTCAA,0.999 ± 0.017
21,ATAATTTGAC,1.04 ± 0.058
22,ATAATTTTAG,0.999 ± 0.031
23,ATAATTTTTT,1.03 ± 0.063
24,ATACAAGGGG,1.03 ± 0.033
25,ATACAGGGCT,1.01 ± 0.029

row,Sequence,switch fluorescence ratio
1,ATACATAACG,1.38 ± 0.052
2,ATACATTGTC,0.978 ± 0.074
3,ATACCAATGA,1.05 ± 0.029
4,ATACCAGTG,1.12 ± 0.055
5,ATACCTCTTG,0.992 ± 0.022
6,ATACCTGGTC,1.053 ± 0.0017
7,ATACGAATTC,1.01 ± 0.049
8,ATACGCCGGT,1.013 ± 0.004
9,ATACGGGGCT,1.03 ± 0.027
10,ATACGTTTCG,0.998 ± 0.03
11,ATACTACGGA,1.03 ± 0.062
12,ATACTATTTT,0.996 ± 0.023
13,ATACTCAACA,1.248 ± 0.0099
14,ATACTCTATT,1.07 ± 0.025
15,ATACTGAGGC,0.999 ± 0.029
16,ATACTGGACT,1.201 ± 0.0084
17,ATACTTATTG,0.99646 ± 0.0008
18,ATAGAAGCGG,0.9684 ± 0.0029
19,ATAGAATCAG,0.975 ± 0.038
20,ATAGAATGTG,1.007 ± 0.0082
21,ATAGAGGAGA,0.992 ± 0.048
22,ATAGAGTGCG,0.957 ± 0.024
23,ATAGATTAGT,0.996 ± 0.035
24,ATAGCGCCG,1.03 ± 0.035
25,ATAGCTGGTT,0.991 ± 0.018

row,Sequence,switch fluorescence ratio
1,ATAGGAGTAT,1.01 ± 0.026
2,ATAGGATCTT,0.996 ± 0.028
3,ATAGGCAGAG,1.003 ± 0.0083
4,ATAGGCGGGA,0.9932 ± 0.00079
5,ATAGGGCCTT,1.02 ± 0.05
6,ATAGGGGCGG,0.978 ± 0.035
7,ATAGGGGGGA,1.01 ± 0.018
8,ATAGGGGTT,1.021 ± 0.005
9,ATAGGGTTGC,1.01 ± 0.014
10,ATAGGTACGC,1.04 ± 0.036
11,ATAGGTATGT,0.998 ± 0.023
12,ATAGGTTTGG,0.97 ± 0.014
13,ATAGGTTTGT,0.989 ± 0.013
14,ATAGGTTTTA,0.976 ± 0.017
15,ATAGTAAGTA,0.996 ± 0.024
16,ATAGTAGGTA,0.99137 ± 0.00055
17,ATAGTATGGT,0.9976 ± 0.0089
18,ATAGTCAAAC,1.027 ± 0.0025
19,ATAGTCATAT,0.9978 ± 0.0017
20,ATAGTCCTCC,1.2 ± 0.0043
21,ATAGTGAGTT,1 ± 0.016
22,ATAGTGATGT,0.995 ± 0.04
23,ATAGTGGGGC,1.056 ± 0.0054
24,ATAGTGGGGG,0.975 ± 0.017
25,ATAGTGTGGC,0.952 ± 0.029

# Source: the supplement of paper PMC10126150
